According to article PMC12255069 (Journal of Biological Engineering, 2025):

T1: ICOS-L wild-type-His (UniProt O75144 19-256)
T1 construct: ICOS ligand (ICOS-L, B7-H2, CD275), ectodomain D1-T238; plasmid pMAZ-ICOS-L-wild-type-His; also called wild-type ICOS-L; B7-H2; source: Expi293F, transient transfection, purified (Ni-NTA agarose, SEC)
T1 sequence (looked up): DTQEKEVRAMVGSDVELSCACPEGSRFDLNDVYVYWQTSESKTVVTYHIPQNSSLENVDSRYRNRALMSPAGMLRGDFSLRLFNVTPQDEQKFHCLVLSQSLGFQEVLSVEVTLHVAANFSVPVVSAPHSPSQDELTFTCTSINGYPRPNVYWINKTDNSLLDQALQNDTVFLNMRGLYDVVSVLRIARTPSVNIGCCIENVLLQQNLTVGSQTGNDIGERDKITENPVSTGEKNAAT

T2: ICOS-L-P (Q51P)-His (UniProt O75144 19-256, Q51P)
T2 construct: plasmid pMAZ-ICOS-L-P (Q51P)-His; source: Expi293F, transient transfection, purified (Ni-NTA agarose, SEC)
T2 sequence (looked up): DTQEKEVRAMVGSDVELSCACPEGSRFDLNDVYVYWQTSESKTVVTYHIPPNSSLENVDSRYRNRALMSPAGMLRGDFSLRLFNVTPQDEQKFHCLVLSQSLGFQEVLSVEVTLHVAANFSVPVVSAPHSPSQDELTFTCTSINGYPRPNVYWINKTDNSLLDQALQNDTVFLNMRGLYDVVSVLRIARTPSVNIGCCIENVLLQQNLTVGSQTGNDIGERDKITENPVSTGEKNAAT

T3: ICOS-L-H (N57H)-His (UniProt O75144 19-256, N57H)
T3 construct: plasmid pMAZ-ICOS-L-H(N57H)-His; source: Expi293F, transient transfection, purified (Ni-NTA agarose, SEC)
T3 sequence (looked up): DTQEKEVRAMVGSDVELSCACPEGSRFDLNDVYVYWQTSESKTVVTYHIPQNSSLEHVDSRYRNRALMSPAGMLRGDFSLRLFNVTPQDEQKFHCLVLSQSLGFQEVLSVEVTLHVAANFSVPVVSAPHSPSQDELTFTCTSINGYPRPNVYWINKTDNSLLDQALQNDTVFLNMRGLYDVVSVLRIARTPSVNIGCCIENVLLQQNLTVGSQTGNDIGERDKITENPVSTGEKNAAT

T4: ICOS-L Y8 (Q51P, N57H)-His (UniProt O75144 19-256, Q51P | N57H)
T4 construct: plasmid pMAZ-ICOS-L-Y8(Q51P, N57H)-His; also called Y8 variant; source: Expi293F, transient transfection, purified (Ni-NTA agarose, SEC)
T4 sequence (looked up): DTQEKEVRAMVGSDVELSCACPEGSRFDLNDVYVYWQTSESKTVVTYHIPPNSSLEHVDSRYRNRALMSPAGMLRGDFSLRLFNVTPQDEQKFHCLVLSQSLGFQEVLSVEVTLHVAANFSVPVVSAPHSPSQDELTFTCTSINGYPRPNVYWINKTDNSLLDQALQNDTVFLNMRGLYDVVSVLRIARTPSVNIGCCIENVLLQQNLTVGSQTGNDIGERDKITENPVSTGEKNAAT


Legend:
Conditions in all cases: both partners purified
ICOS-L wild-type-His = molecular target: T1, ICOS-L wild-type-His; experiment: BLI; Octet R8; hICOS-Fc (5 µg/mL) immobilised on a Protein A biosensor; serial dilutions of ICOS-L variants, 10 min association, 10 min dissociation, 1× PBS pH 7.4
ICOS-L-P (Q51P)-His = molecular target: T2, ICOS-L-P (Q51P)-His; experiment: as above
ICOS-L-H (N57H)-His = molecular target: T3, ICOS-L-H (N57H)-His; experiment: as above
[1] = molecular target: T4, ICOS-L Y8 (Q51P, N57H)-His; experiment: as above
[2] = molecular target: T4, ICOS-L Y8 (Q51P, N57H)-His; experiment: ELISA; ICOS-Fc (hICOS-Fc or mICOS-Fc) coated at 4 µg/mL in 0.05 M Na2CO3 pH 9.6; serially diluted His-tagged ICOS-L variants, detected with mouse anti-His-HRP

| Binder | Kd (ICOS-L wild-type-His) | koff (ICOS-L wild-type-His) | kon (ICOS-L wild-type-His) | Kd (ICOS-L-P (Q51P)-His) | koff (ICOS-L-P (Q51P)-His) | kon (ICOS-L-P (Q51P)-His) | Kd (ICOS-L-H (N57H)-His) | koff (ICOS-L-H (N57H)-His) | kon (ICOS-L-H (N57H)-His) | Kd [1] | koff [1] | kon [1] | binding result [2] |
| --- | --- | --- | --- | --- | --- | --- | --- | --- | --- | --- | --- | --- | --- |
| hICOS-Fc (Fc fusion, human, UniProt Q9Y6W8 21-140, looked up, human Inducible T-cell Co-Stimulator (ICOS), extracellular domain E21-K140; plasmid pMAZ-hICOS-Fc; also called hICOS-hFc; human ICOS ectodomain fused to human Fc; source: Expi293F, transient transfection, purified (Protein A resin)) EINGSANYEMFIFHNGGVQILCKYPDIVQQFKMQLLKGGQILCDLTKTKGSGNTVSIKSLKFCHSQLSNNSVSFFLYNLDHSHANYYFCNLSIFDPPPFKVTLTGGYLHIYESQLCCQLK | 113 nM | 0.0337 s⁻¹ | 298000 M⁻¹ s⁻¹ | 4.75 nM | 0.000961 s⁻¹ | 202000 M⁻¹ s⁻¹ | 23.3 nM | 0.00567 s⁻¹ | 244000 M⁻¹ s⁻¹ | 1.19 nM | 0.000179 s⁻¹ | 150000 M⁻¹ s⁻¹ | – |
| mouse ICOS (E21-K141)-hFc (Fc fusion, UniProt Q9WVS0 21-141, looked up, mouse ICOS, E21-K141; Plasmid pMAZ-mICOS-Fc; also called mICOS-Fc; source: Expi293F, transient transfection, purified (Protein A resin)) EINGSADHRMFSFHNGGVQISCKYPETVQQLKMRLFREREVLCELTKTKGSGNAVSIKNPMLCLYHLSNNSVSFFLNNPDSSQGSYYFCSLSIFDPPPFQERNLSGGYLHIYESQLCCQLK | – | – | – | – | – | – | – | – | – | – | – | – | binds |
